Test results: US20260139239

T1: Fluorogenic peptide substrate ENLYFQGGGK with G at P1'
T1 chain: ENLYFQGGGK

T2: Fluorogenic peptide substrate ENLYFQEGGK with E at P1'
T2 chain: ENLYFQEGGK

T3: Fluorogenic peptide substrate ENLYFQKGGK with K at P1'
T3 chain: ENLYFQKGGK

T4: Fluorogenic peptide substrate ENLYFQLGGK with L at P1'
T4 chain: ENLYFQLGGK

T5: Fluorogenic peptide substrate ENLYFQRGGK with R at P1'
T5 chain: ENLYFQRGGK

T6: Fluorogenic peptide substrate ENLYFQTGGK with T at P1'
T6 chain: ENLYFQTGGK

T7: Fluorogenic peptide substrate ENLYFQIGGK with I at P1'
T7 chain: ENLYFQIGGK

T8: Fluorogenic peptide substrate ENLYFQVGGK with V at P1'
T8 chain: ENLYFQVGGK


Tests used:
[1] = molecular target: T1, Fluorogenic peptide substrate …
[2] = molecular target: T2, Fluorogenic peptide substrate …
[3] = molecular target: T3, Fluorogenic peptide substrate …
[4] = molecular target: T4, Fluorogenic peptide substrate …
[5] = molecular target: T5, Fluorogenic peptide substrate …
[6] = molecular target: T6, Fluorogenic peptide substrate …
[7] = molecular target: T7, Fluorogenic peptide substrate …
[8] = molecular target: T8, Fluorogenic peptide substrate …

| Protein | Km (Michaelis Menten kinetics, fluorogenic peptide cleavage) [1] [µM] | Km (Michaelis Menten kinetics, fluorogenic peptide cleavage) [2] [µM] | Km (Michaelis Menten kinetics, fluorogenic peptide cleavage) [3] [µM] | Km (Michaelis Menten kinetics, fluorogenic peptide cleavage) [4] [µM] | Km (Michaelis Menten kinetics, fluorogenic peptide cleavage) [5] [µM] | Km (Michaelis Menten kinetics, fluorogenic peptide cleavage) [6] [µM] | Km (Michaelis Menten kinetics, fluorogenic peptide cleavage) [7] [µM] | Km (Michaelis Menten kinetics, fluorogenic peptide cleavage) [8] [µM] |
| --- | --- | --- | --- | --- | --- | --- | --- | --- |
| TEV protease variant P1-M218F (SEQ ID NO:1 with Q74L, S135G, I138T, S153N, R203G and M218F) (protein) GESLFKGPRDYNPISSSICHLTNESDGHTTSLYGIGFGPFIITNKHLFRRNNGTLLVQSLHGVFKVKDTTTLQLHLVDGRDMIIIRMPKDFPPFPQKLKFREPQREERICLVTTNFQTKSMSSMVSDTSCTFPSGDGTFWKHWIQTKDGQCGNPLVSTRDGFIVGIHSASNFTNTNNYFTSVPKNFMELLTNQEAQQWVSGWGLNADSVLWGGHKVFFNKPEEPFQPVKEATQLMN | 2.9 | 1.5 | 7.4 | 2.2 | 14.5 | 1.1 | 5.3 | 2.5 |
| TEV protease double mutant DM (SEQ ID NO:1 with S153N and R203G) (protein) GTHHHHHHGSGSGTGESLFKGPRDYNPISSSICHLTNESDGHTTSLYGIGFGPFIITNKHLFRRNNGTLLVQSLHGVFKVKDTTTLQQHLVDGRDMIIIRMPKDFPPFPQKLKFREPQREERICLVTTNFQTKSMSSMVSDTSCTFPSSDGIFWKHWIQTKDGQCGNPLVSTRDGFIVGIHSASNFTNTNNYFTSVPKNFMELLTNQEAQQWVSGWGLNADSVLWGGHKVFMNKPEEPFQPVKEATQLMN | 13.7 | 41 | 13.8 | 23.2 | 47.2 | 7 | 45.9 | 45.8 |
